Results as given in patent US20230381281A1, “PHARMACEUTICAL COMPOSITION COMPRISING GLUCAGON/GLP-1/GIP TRIPLE AGONIST OR LONG-ACTING CONJUGATE THEREOF FOR PREVENTING OR TREATING LUPUS-RELATED DISEASES” (HANMI PHARM. CO., LTD., priority 2020, published 2023).
Bridge positions count the residues as written; N and C are the ends. Square brackets hold non-standard residues; d marks the D form. Ends that are not written are not given here. * marks the point of attachment. Acetyl(2-(4-imidazolyl)) = O=C(Cc1c[nH]cn1)*; Aib = CC(C)(N)C(=O)O

Legend:
Experiment in all cases: cell-based or functional assay
human GLP-1 receptor = human GLP-1 receptor (human, UniProt P43220 24-463)
human GCG receptor = human GCG receptor (human, UniProt P47871 26-477)
human GCG receptor, sequence (P47871 26-477): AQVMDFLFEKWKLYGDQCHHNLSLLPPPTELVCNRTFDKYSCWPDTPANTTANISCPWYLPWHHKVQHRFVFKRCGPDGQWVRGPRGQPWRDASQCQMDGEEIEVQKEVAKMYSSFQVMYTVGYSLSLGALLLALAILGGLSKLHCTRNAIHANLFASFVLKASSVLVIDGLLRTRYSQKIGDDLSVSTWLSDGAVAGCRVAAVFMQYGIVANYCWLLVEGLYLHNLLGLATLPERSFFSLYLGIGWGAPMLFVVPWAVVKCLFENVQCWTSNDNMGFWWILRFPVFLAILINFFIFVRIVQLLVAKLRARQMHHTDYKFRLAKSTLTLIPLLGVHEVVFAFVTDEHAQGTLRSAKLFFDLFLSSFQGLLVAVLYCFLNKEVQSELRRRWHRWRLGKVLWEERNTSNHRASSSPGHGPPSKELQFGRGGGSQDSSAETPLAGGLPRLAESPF

human GIP receptor = target: T1, human GIP receptor (human, UniProt P48546 22-466)
T1 sequence (looked up): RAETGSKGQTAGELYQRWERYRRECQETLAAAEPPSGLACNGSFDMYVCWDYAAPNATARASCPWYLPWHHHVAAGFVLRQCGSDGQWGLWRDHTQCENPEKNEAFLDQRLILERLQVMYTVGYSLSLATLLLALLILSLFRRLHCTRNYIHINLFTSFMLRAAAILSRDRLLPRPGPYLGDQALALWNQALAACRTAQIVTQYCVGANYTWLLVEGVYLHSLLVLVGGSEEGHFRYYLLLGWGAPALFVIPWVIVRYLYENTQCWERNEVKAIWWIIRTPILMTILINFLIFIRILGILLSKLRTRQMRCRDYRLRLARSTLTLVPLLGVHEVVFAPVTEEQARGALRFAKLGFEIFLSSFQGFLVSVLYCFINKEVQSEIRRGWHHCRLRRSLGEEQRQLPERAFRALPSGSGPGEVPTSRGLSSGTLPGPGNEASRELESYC

| Binder | In vitro activity compared to native peptide (%) vs GLP-1 (human GLP-1 receptor) [%] | In vitro activity compared to native peptide (%) vs Glucagon (human GCG receptor) [%] | In vitro activity compared to native peptide (%) vs GIP (human GIP receptor) [%] |
| --- | --- | --- | --- |
| H[Aib]EGTFTSDYSIAMDEIHQKDFVDWLLAEC (bridge 16-20) [Triple agonist of SEQ ID NO: 54] | 30.6 | 1.4 | 0.1 |
| H[Aib]QGTFTSDYSKYLDEKRAKEFVQWLLDHHPSSGQPPPSC (bridge 16-20) [Triple agonist of SEQ ID NO: 50] | 67.4 | 50.5 | 2.7 |
| H[Aib]QGTFTSDVSSYLDGQAAKEFIAWLVKGC [Triple agonist of SEQ ID NO: 1] | 3.2 | < 0.1 | < 0.1 |
| H[Aib]QGTFTSDYSIAMDEIHQKDFVNWLLNTKC (bridge 16-20) [Triple agonist of SEQ ID NO: 35] | 7.5 | < 0.1 | 1.3 |
| H[Aib]QGTFTSDYSKYLDEKRQKEFVNWLLAQC (bridge (positions not given here); also: ring formation between underlined amino acids, places not given here) [Triple agonist of SEQ ID NO: 56] | 57.9 | 4.9 | 0.8 |
| {Acetyl(2-(4-imidazolyl))}-[Aib]QGTFTSDKSSYLDERAAQDFVQWLLDGGPSSGAPPPSS [Triple agonist of SEQ ID NO: 38] | 2.3 | – | – |
| H[Aib]QGTFTSDYSKYLDECRQKEFVQWLLNGGPSSGAPPPSG (bridge 16-20) [Triple agonist of SEQ ID NO: 37] | 236 | 6.21 | 2.2 |
| H[Aib]QGTFTSDKSKYLDECAAQDFVQWLLDGGPSSGAPPPS [Triple agonist of SEQ ID NO: 41] | 34.3 | < 0.1 | < 0.1 |
| {Acetyl(2-(4-imidazolyl))}-[Aib]QGTFTSDYSICMDEIHQKDFVNWLLNTK (bridge 15-19) [Triple agonist of SEQ ID NO: 49] | 29.8 | < 0.1 | 3.3 |
| Y[Aib]QGTFTSDYSKYLDEKRAKEFVQWLLDHHCSSGQPPPS (bridge 16-20) [Triple agonist of SEQ ID NO: 43] | 12.6 | 88.4 | 3.7 |
| H[Aib]QGTFTSDKSKYLDERACQDFVQWLLDGGPSSGAPPPS [Triple agonist of SEQ ID NO: 40] | 75.2 | < 0.1 | < 0.1 |
| H[Aib]QGTFTSDVSSYLLGQQQKEFIAWLVKGC [Triple agonist of SEQ ID NO: 4] | 8.5 | < 0.1 | < 0.1 |
| H[Aib]QGTFTSDYSIAMDEIHQKDFVNWLLAQC (bridge 16-20) [Triple agonist of SEQ ID NO: 55] | 27.1 | 0.7 | 2.4 |
| H[Aib]QGTFTSDYSKYLCEKRQKEFVQWLLNGGPSSGAPPPSG (bridge 16-20) [Triple agonist of SEQ ID NO: 36] | 37.4 | 0.39 | 0.2 |
| HGQGTFTSDCSKQLDGQAAQEFVAWLLAGGPSSGAPPPS [Triple agonist of SEQ ID NO: 44] | 1.3 | < 0.1 | < 0.1 |
| HGQGTFTSDCSKYMDGQAAQDFVAWLLAGGPSSGAPPPS [Triple agonist of SEQ ID NO: 45] | 6.6 | < 0.1 | < 0.1 |
| HGQGTFTSDCSKYLDEQHAQEFVAWLLAGGPSSGAPPPS [Triple agonist of SEQ ID NO: 46] | 1.4 | < 0.1 | < 0.1 |
| HGQGTFTSDCSKYLDGQRAQDFVNWLLAGGPSSGAPPPS [Triple agonist of SEQ ID NO: 48] | 1.5 | < 0.1 | < 0.1 |
| HGQGTFTSDCSKYLDGQRAQEFVAWLLAGGPSSGAPPPS [Triple agonist of SEQ ID NO: 47] | 2.4 | < 0.1 | < 0.1 |
| H[Aib]EGTFTSDYSIAMDEIHQKDFVNWLLAQC (bridge 16-20) [Triple agonist of SEQ ID NO: 53] | 161 | 8.4 | 1.3 |
| H[Aib]QGTFTSDVSSYLLGQQQKEFIAWLVKGGGPSSGAPPPSC [Triple agonist of SEQ ID NO: 5] | 42.1 | < 0.1 | < 0.1 |
| H[Aib]QGTFTSDYSKYLDEKRQKEFVQWLLDTC (bridge 16-20) [Triple agonist of SEQ ID NO: 52] | 44.1 | 7.5 | 0.3 |
| H[Aib]QGTFTSDYSKYLDEKRQKEFVQWLLNTC (bridge 16-20) [Triple agonist of SEQ ID NO: 51] | 14.4 | 2 | 0.1 |
| H[Aib]QGTFTSDYSKYLDGQHAQCFVAWLLAGGGPSSGAPPPS [Triple agonist of SEQ ID NO: 39] | 13.9 | 0.53 | < 0.1 |
| H[Aib]QGTFTSDYSKYLDEKRQKEFVNWLLAQKC (bridge 16-20) [Triple agonist of SEQ ID NO: 34] | 19.1 | 0.92 | 0.6 |
| Y[Aib]QGTFTSDYSKYLDEKRAKEFVQWLLDHHPSSGQPPPSC (bridge 16-20) [Triple agonist of SEQ ID NO: 42] | 33.9 | 206 | 7.8 |
| H[Aib]QGTFTSDVSSYLDGQAAKEFVAWLLKGC [Triple agonist of SEQ ID NO: 6] | 17 | < 0.1 | < 0.1 |
